Test results published in PMC3458572.
Read-outs that look alike come from different tables or passages of the source.

Assays:
Assay in all cases: immunodepletion
[1] = target: Xenopus laevis FANCI, extract-endogenous (Xenopus laevis (endogenous in egg extract)) (UniProt D2JYR7)
[2] = target: Xenopus laevis FANCD2, extract-endogenous, non-ubiquitinated (Xenopus laevis (endogenous in egg extract))
[3] = target: Xenopus laevis FANCD2, extract-endogenous, non-ubiquitinated (Xenopus laevis (endogenous in egg extract)); remark: listed apart in the source

Row | Substance | percent co-depleted [1] | percent co-depleted [2] | percent co-depleted [3]
1 | Xenopus laevis FANCD2, extract-endogenous, non-ubiquitinated (natural protein) | 80% | – | –
2 | Xenopus laevis FANCI, extract-endogenous (from UniProt D2JYR7 1-1337) (natural protein) | – | 80% | 80%
